In the supplement of paper PMC9732359 one finds protein stability index data, which are given here for 39 sequences.

The series can be described thus: protein stability index of a GFP-peptide fusion (yeast GPS) (PSI 1-4); higher = more stable; sorted into four equal gates, so the index is relative within each strain. The method, boiled down:
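Sequencing reads from sorted gates were used to score each peptide. The library consisted of tiled 17-residue yeast protein peptides fused downstream of GFP on a Cherry-expressing plasmid, pooled and carried in yeast. Mid-log cultures in leucine-free medium were split into four equal gates by GFP/Cherry ratio, and each gate's plasmids were PCR-amplified and Illumina-sequenced. The protein stability index adds up, over all gates, the read frequency multiplied by the gate number.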

± gives the uncertainty stated by the source.

Regarding KALDELKPEIEKLTSKS [LRP1], the protein stability index reads like this: (doa10∆) 2.86 ± 0.089; (pdr5∆) 2.93 ± 0.077; (san1∆) 2.93 ± 0.068; (ubr1∆) 2.74 ± 0.066.
With KARAKKTKKEKGPNEEE [RPN2], the protein stability index by setting is: (doa10∆) 3.45 ± 0.22; (pdr5∆) 3.37 ± 0.15; (san1∆) 3.43 ± 0.064; (ubr1∆) 3.15 ± 0.18.
Take KARFVSKLAEEKIRAAG [RPL28]: the protein stability index runs as follows: (doa10∆) 2.508 ± 0.025; (pdr5∆) 2.66 ± 0.027; (san1∆) 2.6 ± 0.028; (ubr1∆) 2.793 ± 0.024.
In the case of KASSTPAGGLFGQASGA [YGL172W/NUP49], the protein stability index (san1∆) was 2.19 ± 0.26.
In the case of KAYVRLTADYDALDIAN [RPL25], the protein stability index stood at 2.94 ± 0.14 (doa10∆), 3.04 ± 0.15 (pdr5∆), 3.17 ± 0.094 (san1∆) and 3.52 ± 0.091 (ubr1∆).
Taken in the same sequence, the figures for KCKEVGITAVHVKIRAT [RPS14B] were 2.39 ± 0.063, 1.64 ± 0.051, 1.7 ± 0.1 and 2.19 ± 0.043.
KCNDGVVFAVEKLITSK [PRE10] registered a protein stability index (san1∆) of 2.87 ± 0.22.
KDERGEGEAKQKRNAHG [ITC1] gave a protein stability index (doa10∆) of 3.21 ± 0.18, a protein stability index (pdr5∆) of 3.69 ± 0.23, a protein stability index (san1∆) of 3.46 ± 0.098 and a protein stability index (ubr1∆) of 3.34 ± 0.14.
Turning to KDGETTDANGKTIVTGG [RPO26], the protein stability index runs as follows: (doa10∆) 3.39 ± 0.076; (pdr5∆) 3.32 ± 0.047; (san1∆) 3.37 ± 0.059; (ubr1∆) 3.33 ± 0.047.
On the same counts, the results for KDIVNISIPKTCDEIQN [REC8] are 2.81 ± 0.067, 2.74 ± 0.056, 2.54 ± 0.05 and 2.84 ± 0.042.
Taken in the same sequence, the figures for KDLENAQVEMKSLEEQE [SMC1] were 3.43 ± 0.14, 3.12 ± 0.1, 3.37 ± 0.085 and 3.3 ± 0.081.
As to KDLSNYRKTEGIFEKAK [YMR153W/NUP53], the protein stability index came to 3.01 ± 0.11 (doa10∆), 2.75 ± 0.1 (pdr5∆), 3.04 ± 0.1 (san1∆) and 2.74 ± 0.086 (ubr1∆).
On the same counts, the results for KDLVIVSNLMGRNIGHP [RPB3] are 3.22 ± 0.051, 3.1 ± 0.05, 3.18 ± 0.039 and 2.88 ± 0.037.
On the same counts, the results for KDMSPILGELKRVKSYM [LRP1] are 2.43 ± 0.062, 2.74 ± 0.056, 2.51 ± 0.059 and 2.97 ± 0.038.
Taken in the same sequence, the figures for KDPSPEILVLYNVCDTS [SIN4] were 2.8 ± 0.071, 2.9 ± 0.06, 2.82 ± 0.058 and 2.88 ± 0.12.
In the case of KDQDSQIELSCNERVPL [SRP72], the protein stability index by setting is: (doa10∆) 3.08 ± 0.08; (pdr5∆) 3.12 ± 0.097; (san1∆) 2.83 ± 0.056; (ubr1∆) 3.01 ± 0.059.
The sequence KDSLDNTFVTRLNNVFV [RPS4A] registered a protein stability index (doa10∆) of 3.02 ± 0.11, a protein stability index (pdr5∆) of 3.02 ± 0.078, a protein stability index (san1∆) of 2.95 ± 0.085 and a protein stability index (ubr1∆) of 2.95 ± 0.062.
On the same counts, the results for KDSLWQSEHLEAVVDQD [FAS1] are 3.43 ± 0.24, 3.36 ± 0.14, 3.46 ± 0.088 and 3.41 ± 0.09.
On the same counts, the results for KDWELEARFWHLVELLL [YDL116W/NUP84] are 2.26 ± 0.1, 2.15 ± 0.086, 1.92 ± 0.15 and 2.28 ± 0.062.
As to KEDAKATMENIQKGKFT [SRP54], the protein stability index runs as follows: (doa10∆) 3.07 ± 0.055; (pdr5∆) 3.29 ± 0.057; (san1∆) 3.09 ± 0.062; (ubr1∆) 3.08 ± 0.051.
On the same counts, the results for KEEFSSDESIERLMTWK [RRI2] are 2.49 ± 0.08, 2.77 ± 0.076, 2.55 ± 0.11 and 2.43 ± 0.17.
Taken in the same sequence, the figures for KEEGLQQFNLHEILSEP [MED1] were 2.97 ± 0.15, 3.21 ± 0.15, 3.12 ± 0.12 and 2.62 ± 0.12.
On the same counts, the results for KEEQPKQIIVTRKAMLD [PRP8] are 2.62 ± 0.078, 3.09 ± 0.082, 2.71 ± 0.068 and 2.61 ± 0.049.
KEHDEIEEQGDALQDVE [DPB4] came in with a protein stability index (doa10∆) of 3.17 ± 0.092, a protein stability index (pdr5∆) of 3.39 ± 0.12, a protein stability index (san1∆) of 3.36 ± 0.06 and a protein stability index (ubr1∆) of 3.36 ± 0.067.
For the sequence KEIMDKIITSRPLQKIM [SIN4], the protein stability index reads like this: (doa10∆) 2.13 ± 0.12; (pdr5∆) 1.23 ± 0.068; (san1∆) 1.45 ± 0.18; (ubr1∆) 1.06 ± 0.065.
On the same counts, the results for KEKESKKDSKPAFSFGI [YLR335W/NUP2] are 2.96 ± 0.077, 3.01 ± 0.068, 3.19 ± 0.058 and 3.23 ± 0.059.
Regarding KEKIQHELGINIDSLKF [BRR2], the protein stability index was 3.19 ± 0.065 (doa10∆), 3.07 ± 0.053 (pdr5∆), 3.05 ± 0.043 (san1∆) and 3.22 ± 0.06 (ubr1∆).
Take KEKVEEQEQQQQQIIKI [RPS20]: the protein stability index reads like this: (doa10∆) 3.16 ± 0.076; (pdr5∆) 3.38 ± 0.11; (san1∆) 3.19 ± 0.066; (ubr1∆) 3.24 ± 0.091.
Take KEKVSNGGVGVDVELIT [FAS2]: the protein stability index runs as follows: (doa10∆) 2.96 ± 0.046; (pdr5∆) 3.13 ± 0.062; (san1∆) 3.11 ± 0.056; (ubr1∆) 3.05 ± 0.05.
On the same counts, the results for KEKYGLAVSTILGKNFD [SMC1] are 2.98 ± 0.07, 2.82 ± 0.066, 2.69 ± 0.057 and 2.58 ± 0.05.
As to KELFEKTFDYVSDHLDA [SMC1], the protein stability index reads like this: (doa10∆) 3.35 ± 0.085; (pdr5∆) 2.87 ± 0.068; (san1∆) 2.9 ± 0.077; (ubr1∆) 3 ± 0.049.
Taken in the same sequence, the figures for KELNTERQIFLEACIVR [CDC53] were 2.09 ± 0.048, 2.23 ± 0.072, 2.5 ± 0.056 and 2.57 ± 0.047.
In the case of KELQLEKESVEKQHENA [SMC3], the protein stability index by setting is: (doa10∆) 3.02 ± 0.14; (pdr5∆) 3.32 ± 0.099; (san1∆) 2.85 ± 0.071; (ubr1∆) 3.15 ± 0.054.
On the same counts, the results for KENDTVMNTKLLQEGGS [ESC2] are 3.16 ± 0.12, 3.2 ± 0.092, 3.04 ± 0.078 and 3.21 ± 0.076.
Take KEPKKLLPNSKNVENTK [DSN1]: the protein stability index reads like this: (doa10∆) 3.12 ± 0.17; (pdr5∆) 2.74 ± 0.15; (san1∆) 2.59 ± 0.14; (ubr1∆) 3.21 ± 0.083.
On the same counts, the results for KEPPRDRKKDKNVKHSG [RPL12A] are 3.29 ± 0.09, 3.12 ± 0.084, 3.22 ± 0.067 and 3.17 ± 0.061.
KEPVDDKDVKAKYETSI [FAS2]: the protein stability index runs as follows: (doa10∆) 3.2 ± 0.086; (pdr5∆) 3.21 ± 0.12; (san1∆) 2.43 ± 0.12; (ubr1∆) 2.83 ± 0.13.
For KEQYNRYRDLMISCLMN [MTR3], the protein stability index is, setting by setting: (doa10∆) 2.07 ± 0.085; (pdr5∆) 2.41 ± 0.053; (san1∆) 2.4 ± 0.07; (ubr1∆) 2.46 ± 0.086.
On the same counts, the results for KERNQKFQLQNQLEDFI [YIL149C/MLP2] are 3.05 ± 0.075, 3.25 ± 0.066, 2.78 ± 0.05 and 3 ± 0.053.
